This note sets out measurements from patent publication US20150106963A1.

The experiment concerns the target porcine cytochrome P450 17A1 (CYP17A1), wild type (pig (Sus scrofa)) (UniProt P19100). Nature of the experiment: cell-based or functional assay. The note with it: scale: ratio.
Sequence of UniProt P19100 (P19100 whole entry H407L, form in doubt): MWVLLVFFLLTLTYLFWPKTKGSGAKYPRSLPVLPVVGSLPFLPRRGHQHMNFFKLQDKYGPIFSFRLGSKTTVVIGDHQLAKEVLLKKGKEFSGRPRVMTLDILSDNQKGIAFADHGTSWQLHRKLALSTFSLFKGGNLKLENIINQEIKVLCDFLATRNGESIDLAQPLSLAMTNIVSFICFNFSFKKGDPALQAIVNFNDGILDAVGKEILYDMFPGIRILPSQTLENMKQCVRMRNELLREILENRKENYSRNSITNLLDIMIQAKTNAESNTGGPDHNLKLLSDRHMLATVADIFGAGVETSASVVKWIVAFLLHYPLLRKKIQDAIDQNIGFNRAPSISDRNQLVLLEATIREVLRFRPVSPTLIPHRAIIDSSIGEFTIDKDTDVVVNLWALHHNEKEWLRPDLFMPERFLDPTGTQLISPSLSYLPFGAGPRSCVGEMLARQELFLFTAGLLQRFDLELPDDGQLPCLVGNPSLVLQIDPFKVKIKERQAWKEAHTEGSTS

As for “porcine cytochrome b5 type A double mutant CYB5A-N21K+L28V (from UniProt P00172 2-134)”, the Overall conversion (ratio of activity with b5/activity without b5), pregnenolone metabolism in transfected HEK-293 cells is 1.05.

On to “porcine cytochrome b5 type A double mutant CYB5A-R52M+N62S (from UniProt P00172 2-134)”, for which the Overall conversion (ratio of activity with b5/activity without b5), pregnenolone metabolism in transfected HEK-293 cells worked out at 0.957.

In the case of “porcine cytochrome b5 type A mutant CYB5A-G57R (from UniProt P00172 2-134)”, the Overall conversion (ratio of activity with b5/activity without b5), pregnenolone metabolism in transfected HEK-293 cells amounted to 0.865.

In the case of “porcine cytochrome b5 type A mutant CYB5A-L28V (from UniProt P00172 2-134)”, the Overall conversion (ratio of activity with b5/activity without b5), pregnenolone metabolism in transfected HEK-293 cells came out at 1.2.

Regarding “porcine cytochrome b5 type A mutant CYB5A-N21K (from UniProt P00172 2-134)”, the Overall conversion (ratio of activity with b5/activity without b5), pregnenolone metabolism in transfected HEK-293 cells came out at 1.36.

With “porcine cytochrome b5 type A mutant CYB5A-N62S (from UniProt P00172 2-134)”, the Overall conversion (ratio of activity with b5/activity without b5), pregnenolone metabolism in transfected HEK-293 cells worked out at 2.16.

On to “porcine cytochrome b5 type A mutant CYB5A-QM R52M/G57R/N62S/T70S (from UniProt P00172 2-134)”, for which the Overall conversion (ratio of activity with b5/activity without b5), pregnenolone metabolism in transfected HEK-293 cells stood at 1.4.

As for “porcine cytochrome b5 type A mutant CYB5A-R52M (from UniProt P00172 2-134)”, the Overall conversion (ratio of activity with b5/activity without b5), pregnenolone metabolism in transfected HEK-293 cells worked out at 0.765.

“porcine cytochrome b5 type A mutant CYB5A-T70S (from UniProt P00172 2-134)”: the Overall conversion (ratio of activity with b5/activity without b5), pregnenolone metabolism in transfected HEK-293 cells was determined as 1.09.
